The record followed here is patent US20260008862A1, “Bispecific Anti-BCMA x Anti-CD3 Antibodies and Uses Thereof” (Regeneron Pharmaceuticals, Inc., priority 2018, published 2026).

The target of assay [1] is T1, surface BCMA on H929 cells (Homo sapiens, UniProt Q02223).
T1 construct: human cell lines which express endogenous BCMA (e.g., NCI-H929); endogenous in cells; host or cells: multiple myeloma cell lines H929
The assay can be described thus: FACS surface BCMA after overnight incubation, NCI-H929. The class given is cell-based. To be noted: range over detecting anti-BCMA antibodies. The method, then:
(§1) Flow cytometric analysis was utilized to determine the impact of overnight incubation of multiple myeloma cell lines with anti-BCMA antibodies on the level of surface BCMA. […] After 18 hours, wells were washed with cold FACS wash (PBS+1% filtered FBS) and resuspended in 667 nM of the same anti-BCMA antibody in cold stain buffer (Miltenyi 130-091-221) for 30 minutes on ice. After incubation, the cells were washed twice with cold FACS wash (PBS+1% filtered FBS) and bound antibody was detected by incubating with the appropriate anti-human secondary antibody (anti-hIgG or anti-HIS) on ice for an additional 30-45 minutes. After incubation, cells were washed, re-suspended in 200 μL cold PBS containing 1% filtered FBS and analyzed by flow cytometry on a BD FACS Canto II. Fold increase in staining was calculated by dividing the MFI of stained cells previously incubated overnight in BCMA abs or DAPT by the MFI of stained cells that were incubated overnight in media only.

For assay [2], the target named is surface BCMA on Molp8 cells (Homo sapiens, UniProt Q02223). The assay can be described thus: FACS surface BCMA after overnight incubation, Molp8. The class given is cell-based. The conditions noted are these: range over detecting anti-BCMA antibodies. As for the experimental part: as §1
Sequence of surface BCMA on Molp8 cells (Q02223 whole entry): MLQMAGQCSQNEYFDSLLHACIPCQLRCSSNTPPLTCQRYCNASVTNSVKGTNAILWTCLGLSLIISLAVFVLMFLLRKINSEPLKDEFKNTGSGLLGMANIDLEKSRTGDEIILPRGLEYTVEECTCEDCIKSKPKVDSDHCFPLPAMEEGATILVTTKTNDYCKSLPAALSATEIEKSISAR
Assay [3] addresses T2, surface BCMA on U266 cells (Homo sapiens, UniProt Q02223).
T2 construct: human cell lines which express endogenous BCMA; endogenous in cells; host or cells: multiple myeloma cell lines U266
The assay can be described thus: FACS surface BCMA after overnight incubation, U266. It counts as cell-based. To be noted: range over detecting anti-BCMA antibodies. The method, then: as §1

Assay [4] addresses surface BCMA on MM1.S cells (Homo sapiens, UniProt Q02223). The assay can be described thus: FACS surface BCMA after overnight incubation, MM1S. The class given is cell-based. To be noted: MM.1 S. As for the experimental part: as §1
In a further assay the target is T3, human BCMA-MMH (Homo sapiens, UniProt Q02223).
T3 construct: (human BCMA-MMH); myc-myc-hexahistidine (C); made in house
T3 sequence (Q02223 with tags, fused parts or gaps): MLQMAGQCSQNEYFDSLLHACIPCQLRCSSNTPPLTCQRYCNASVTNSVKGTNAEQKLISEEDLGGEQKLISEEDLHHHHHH
The assay can be described thus: SPR (Biacore 4000) binding kinetics to human BCMA-MMH. To be noted: 25° C. The method, then: (§2) The CM5 Biacore sensor surface was derivatized by amine coupling with a monoclonal mouse anti-human Fc antibody (GE, #BR-11008-39) to capture purified anti-BCMA mAbs and anti-BCMA×anti-CD3 bispecific mAbs. All Biacore binding studies were performed in a buffer composed of 0.01 M HEPES pH 7.4, 0.15M NaCl, 3 mM EDTA, 0.05% v/v Surfactant P20 (HBS-ET running buffer). […] Antigen samples were then injected over the anti-BCMA and anti-BCMA×anti-CD3 bispecific mAbs captured surfaces at a flow rate of 30 μL/minute. Antibody-reagent association was monitored for 5 minutes while dissociation in HBS-ET running buffer was monitored for 10 minutes. All of the binding kinetics experiments were performed at 25° C. Kinetic association (ka) and dissociation (kd) rate constants were determined by fitting the real-time sensorgrams to a 1:1 binding model using Scrubber 2.0c curve fitting software. Binding dissociation equilibrium constants (KD) and dissociative half-lives (t½) were calculated from the kinetic rate constants as: […]
Background: SPR reads the build-up and loss of mass on a sensor chip optically.

The target in the next assay is T4, human BCMA-MFC (Homo sapiens, UniProt Q02223).
T4 construct: (human BCMA-MFC); made in house
T4 sequence (Q02223 with tags, fused parts or gaps): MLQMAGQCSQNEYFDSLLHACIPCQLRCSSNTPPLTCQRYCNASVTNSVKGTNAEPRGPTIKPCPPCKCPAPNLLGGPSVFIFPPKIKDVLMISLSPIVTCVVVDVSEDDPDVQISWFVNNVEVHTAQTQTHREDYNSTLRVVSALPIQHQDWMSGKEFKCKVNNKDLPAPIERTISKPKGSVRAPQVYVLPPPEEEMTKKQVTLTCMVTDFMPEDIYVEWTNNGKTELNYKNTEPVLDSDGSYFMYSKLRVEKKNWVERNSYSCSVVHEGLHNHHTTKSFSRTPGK
The assay can be described thus: SPR (Biacore 4000) binding kinetics to human BCMA-MFC. The conditions noted are these: 25° C. As for the experimental part: as §2

In a further assay the test system is monkey BCMA-MMH. The assay can be described thus: SPR (Biacore 4000) binding kinetics to monkey BCMA-MMH. To be noted: 25° C.; 90 nM antigen. The method, then: as §2
Sequence of monkey BCMA-MMH (as listed by the source): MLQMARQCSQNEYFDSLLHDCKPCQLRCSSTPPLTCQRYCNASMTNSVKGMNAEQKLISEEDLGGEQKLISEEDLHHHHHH
The subject of the next assay is monkey BCMA-MFC. The assay can be described thus: SPR (Biacore 4000) binding kinetics to monkey BCMA-MFC. To be noted: 25° C. As for the experimental part:
as §2

The subject of the next assay is mouse BCMA-MFC. The assay can be described thus: SPR (Biacore 4000) binding kinetics to mouse BCMA-MFC. The conditions noted are these: 25° C. As for the experimental part:
as §2

Sequence of mouse BCMA-MFC (as listed by the source): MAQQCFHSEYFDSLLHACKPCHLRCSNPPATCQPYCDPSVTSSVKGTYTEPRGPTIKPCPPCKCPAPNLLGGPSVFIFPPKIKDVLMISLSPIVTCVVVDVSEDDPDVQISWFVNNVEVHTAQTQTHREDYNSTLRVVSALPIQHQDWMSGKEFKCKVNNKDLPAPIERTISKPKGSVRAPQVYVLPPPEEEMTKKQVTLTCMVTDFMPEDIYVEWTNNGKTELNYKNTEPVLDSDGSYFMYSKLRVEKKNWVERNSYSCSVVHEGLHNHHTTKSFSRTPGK
Sequence of monkey BCMA-MFC (as listed by the source): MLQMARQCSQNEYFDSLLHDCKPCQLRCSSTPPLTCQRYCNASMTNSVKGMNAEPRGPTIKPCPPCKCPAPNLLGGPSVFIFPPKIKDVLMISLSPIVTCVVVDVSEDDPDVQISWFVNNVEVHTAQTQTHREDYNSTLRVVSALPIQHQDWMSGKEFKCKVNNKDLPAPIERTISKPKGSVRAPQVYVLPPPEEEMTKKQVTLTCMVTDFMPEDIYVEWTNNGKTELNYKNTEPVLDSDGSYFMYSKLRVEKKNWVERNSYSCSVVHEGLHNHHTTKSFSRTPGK
T2 sequence (Q02223 whole entry): as the sequence (Q02223 whole entry) above
Sequence of surface BCMA on MM1.S cells (Q02223 whole entry): as above
T1 sequence (Q02223 whole entry): as above

For `C[C@H](NC(=O)Cc1cc(F)cc(F)c1)C(=O)N[C@H](C(=O)OC(C)(C)C)c1ccccc1` [DAPT], the “fold increase in MFI of BCMA over cells incubated in media only” value is reported as 2.3-4 fold in assay [1], 2.4-8.6 fold in assay [2], 5.3-9.0 fold in [3] and 11.9 fold in assay [4].

B1: REGN4515: anti-BCMA antibody, HCVR/LCVR SEQ ID NOs 50/58 (antibody, V domains shown)
VH: QVQLVESGGGLVKPGGSLRLSCAASGFTFSDYYISWIRQAPGKGLEWVSYISSSGSSIKYADSVKGRFTISRDNAKNSLYLQMNSLRAEDTAVYYCAREGGNYGMDVWGQGTTVTVSS
VL: DIQMTQSPSSVSASVGDRVTITCRASQGINNWLVWYQQKPGKAPKLLIYAATSLQSGVPSRFSGSGSGTDFTLTISSLQPEDFATYYCQQANSFPPTFGQGTKLEIK
For B1, the “ka” value with human BCMA-MMH stood at 869000 M⁻¹ s⁻¹; with human BCMA-MFC, 1.41e+06 M⁻¹ s⁻¹; with monkey BCMA-MFC it was 2.13e+06 M⁻¹ s⁻¹; in the assay on mouse BCMA-MFC, 947000 M⁻¹ s⁻¹. For the same molecule, the “kd” value with human BCMA-MMH amounted to 0.00247 s⁻¹; with human BCMA-MFC, 8.95e-05 s⁻¹; on monkey BCMA-MFC, 0.00716 s⁻¹; on mouse BCMA-MFC, 0.00418 s⁻¹. Further, in the assay on monkey BCMA-MMH, the “90 nM mfBCMA.mmh Bind (RU)” value is on record as 1.9 RU.

B2: REGN4514: anti-BCMA antibody, HCVR/LCVR SEQ ID NOs 34/42 (antibody, V domains shown)
VH: EVQLVESGGGLVQPGRSLRLSCAASGFTFDDYAMHWVRQAPGKGLEWVSGISWNSGNMGYADSVKGRFTISRDNAKNSLFLQMHSLRAEDTAFYYCAKVRLTAFDFWGQGTLVTVSS
VL: DIQMTQSPSSLSASVGDRVTITCRTSQSIGNYLNWFQQKPGKAPKLLIYTASSLQNGVPSRFTGSGSGTDFTLTISSLQPEDFVIYYCQQSFSTPYTFGQGTKLEIK
For the molecule B2, the “ka” value in the assay with human BCMA-MMH was 1.06e+06 M⁻¹ s⁻¹; with human BCMA-MFC, 1.07e+06 M⁻¹ s⁻¹; in the assay with monkey BCMA-MFC it was 492000 M⁻¹ s⁻¹; in the assay with mouse BCMA-MFC it was 397000 M⁻¹ s⁻¹. The “kd” value is 0.00285 s⁻¹ with human BCMA-MMH, 4.53e-05 s⁻¹ with human BCMA-MFC, 0.00724 s⁻¹ on monkey BCMA-MFC and 0.000269 s⁻¹ at mouse BCMA-MFC. Further, in the assay on monkey BCMA-MMH, the “90 nM mfBCMA.mmh Bind (RU)” value came out at 1.1 RU.

B3: mAb16711: anti-BCMA antibody, HCVR/LCVR SEQ ID NOs 2/10 (antibody, V domains shown)
VH: QVQLVESGGGVVQPGRSLRLSCAASGFTFSTYGIHWVRQAPGKGLEWVAVILHDGSSNYYAESVKGRFIISRDNSKNTLYLQMNSLRAEDTALYYCTKRYSEAAGPNWFDPWGQGTLVTVSS
VL: DIQMTQSPSSVSASVGDRVTITCRASRGISSWLAWYQQKPGKAPKLLIHAASSLQSGVPSRFSGSGSGTDFTLTISSLQPEDFATYYCQQAISFPFTFGPGTKVDIK
With B3, the “ka” value with human BCMA-MMH was found to be 2.01e+06 M⁻¹ s⁻¹; with human BCMA-MFC, 1.85e+06 M⁻¹ s⁻¹; in the assay with mouse BCMA-MFC it was 1.07e+06 M⁻¹ s⁻¹. Further, the entries for the “kd” value in the assay with human BCMA-MMH, in the assay with human BCMA-MFC and at mouse BCMA-MFC were 0.00347 s⁻¹, 0.00019 s⁻¹ and 0.0011 s⁻¹, respectively.
